These results are taken from patent US20190134153A1, “IMMUNOMODULATORY EFFECT OF INHALED KINASE INHIBITOR PEPTIDES IN LUNG” (MOERAE MATRIX, INC., priority 2017, published 2019).

Some targets named below: CaMKI(h) (Homo sapiens, UniProt Q14012); MSK1(h) (Homo sapiens, UniProt O75582); Rsk4(h) (Homo sapiens, UniProt Q9UK32); CHK2(h) (Homo sapiens, UniProt O96017); HIPK2(h) (Homo sapiens, UniProt Q9H2X6).
Experiment in all cases: Kinase Profiling Assay
Type in all cases: biochemical
Details in all cases: 100 μM

Another assay addresses T1, TSSK2(h) (Homo sapiens, UniProt Q96PF2).
T1 sequence (Q96PF2 1-358): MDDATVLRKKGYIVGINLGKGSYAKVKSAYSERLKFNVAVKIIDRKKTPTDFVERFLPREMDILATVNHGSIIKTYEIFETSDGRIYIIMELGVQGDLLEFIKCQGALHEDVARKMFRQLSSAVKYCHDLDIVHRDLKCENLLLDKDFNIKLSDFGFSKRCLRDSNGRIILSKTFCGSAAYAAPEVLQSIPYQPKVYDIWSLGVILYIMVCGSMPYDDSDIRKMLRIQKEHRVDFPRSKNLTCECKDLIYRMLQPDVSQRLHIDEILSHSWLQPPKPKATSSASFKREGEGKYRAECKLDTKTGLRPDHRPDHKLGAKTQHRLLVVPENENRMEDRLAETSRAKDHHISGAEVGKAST

Another assay concerns the target T2, NEK3(h) (Homo sapiens, UniProt P51956).
T2 sequence (P51956 1-506): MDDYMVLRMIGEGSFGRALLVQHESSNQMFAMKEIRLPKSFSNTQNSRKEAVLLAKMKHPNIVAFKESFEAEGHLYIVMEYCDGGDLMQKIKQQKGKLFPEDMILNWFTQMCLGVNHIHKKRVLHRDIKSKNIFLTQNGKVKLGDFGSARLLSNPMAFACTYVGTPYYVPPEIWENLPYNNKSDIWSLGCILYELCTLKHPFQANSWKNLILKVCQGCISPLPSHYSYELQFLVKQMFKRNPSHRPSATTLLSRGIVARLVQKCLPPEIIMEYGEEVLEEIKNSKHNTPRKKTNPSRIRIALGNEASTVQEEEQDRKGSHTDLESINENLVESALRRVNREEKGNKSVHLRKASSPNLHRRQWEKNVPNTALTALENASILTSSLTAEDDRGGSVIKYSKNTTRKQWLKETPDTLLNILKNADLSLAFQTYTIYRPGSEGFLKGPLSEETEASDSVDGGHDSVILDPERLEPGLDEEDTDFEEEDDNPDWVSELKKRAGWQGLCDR

In a further assay the target is T3, DCAMKL2(h) (Homo sapiens, UniProt Q8N568).
T3 sequence (Q8N568 1-766): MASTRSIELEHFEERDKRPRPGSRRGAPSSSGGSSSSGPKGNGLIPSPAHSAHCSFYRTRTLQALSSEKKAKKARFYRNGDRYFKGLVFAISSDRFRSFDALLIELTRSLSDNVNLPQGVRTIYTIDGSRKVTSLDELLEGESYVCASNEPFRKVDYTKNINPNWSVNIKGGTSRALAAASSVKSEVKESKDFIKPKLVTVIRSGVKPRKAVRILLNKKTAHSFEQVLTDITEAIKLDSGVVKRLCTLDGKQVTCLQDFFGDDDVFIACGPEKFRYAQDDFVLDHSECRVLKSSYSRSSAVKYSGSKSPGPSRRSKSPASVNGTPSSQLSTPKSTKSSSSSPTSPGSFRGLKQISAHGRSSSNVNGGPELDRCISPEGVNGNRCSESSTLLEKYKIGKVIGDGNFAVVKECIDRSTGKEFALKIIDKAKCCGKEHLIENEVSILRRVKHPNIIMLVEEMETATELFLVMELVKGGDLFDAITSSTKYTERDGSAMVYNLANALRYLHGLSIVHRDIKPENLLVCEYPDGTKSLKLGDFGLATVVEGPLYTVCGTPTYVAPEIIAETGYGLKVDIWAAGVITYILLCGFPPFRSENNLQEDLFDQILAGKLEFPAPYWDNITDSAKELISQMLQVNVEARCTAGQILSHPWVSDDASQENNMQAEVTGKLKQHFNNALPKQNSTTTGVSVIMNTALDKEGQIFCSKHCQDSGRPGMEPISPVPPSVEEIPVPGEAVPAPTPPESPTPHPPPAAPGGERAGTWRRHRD

The target of the next assay is T4, Haspin(h) (Homo sapiens, UniProt Q8TF76).
T4 sequence (Q8TF76 1-798): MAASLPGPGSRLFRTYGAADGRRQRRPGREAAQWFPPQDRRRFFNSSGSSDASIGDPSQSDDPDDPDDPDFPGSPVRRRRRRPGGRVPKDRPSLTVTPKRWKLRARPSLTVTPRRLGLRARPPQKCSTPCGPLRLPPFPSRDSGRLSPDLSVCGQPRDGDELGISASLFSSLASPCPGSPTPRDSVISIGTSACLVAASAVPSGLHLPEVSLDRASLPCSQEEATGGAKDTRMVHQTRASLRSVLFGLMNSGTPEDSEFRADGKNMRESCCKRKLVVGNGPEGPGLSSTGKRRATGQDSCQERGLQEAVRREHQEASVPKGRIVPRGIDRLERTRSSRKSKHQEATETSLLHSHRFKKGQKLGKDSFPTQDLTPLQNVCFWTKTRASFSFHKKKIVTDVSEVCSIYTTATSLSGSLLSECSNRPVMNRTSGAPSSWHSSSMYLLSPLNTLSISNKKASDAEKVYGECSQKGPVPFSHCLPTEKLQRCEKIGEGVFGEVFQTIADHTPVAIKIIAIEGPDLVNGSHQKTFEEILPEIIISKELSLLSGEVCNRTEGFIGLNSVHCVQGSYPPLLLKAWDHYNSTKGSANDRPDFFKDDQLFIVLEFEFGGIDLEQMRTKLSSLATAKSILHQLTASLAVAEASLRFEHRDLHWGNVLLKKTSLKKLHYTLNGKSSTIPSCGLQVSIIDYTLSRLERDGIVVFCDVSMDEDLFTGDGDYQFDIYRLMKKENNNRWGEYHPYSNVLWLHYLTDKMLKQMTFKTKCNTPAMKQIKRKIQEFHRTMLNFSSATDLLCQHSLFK

Chain of HIPK2(h) (Q9H2X6 whole entry): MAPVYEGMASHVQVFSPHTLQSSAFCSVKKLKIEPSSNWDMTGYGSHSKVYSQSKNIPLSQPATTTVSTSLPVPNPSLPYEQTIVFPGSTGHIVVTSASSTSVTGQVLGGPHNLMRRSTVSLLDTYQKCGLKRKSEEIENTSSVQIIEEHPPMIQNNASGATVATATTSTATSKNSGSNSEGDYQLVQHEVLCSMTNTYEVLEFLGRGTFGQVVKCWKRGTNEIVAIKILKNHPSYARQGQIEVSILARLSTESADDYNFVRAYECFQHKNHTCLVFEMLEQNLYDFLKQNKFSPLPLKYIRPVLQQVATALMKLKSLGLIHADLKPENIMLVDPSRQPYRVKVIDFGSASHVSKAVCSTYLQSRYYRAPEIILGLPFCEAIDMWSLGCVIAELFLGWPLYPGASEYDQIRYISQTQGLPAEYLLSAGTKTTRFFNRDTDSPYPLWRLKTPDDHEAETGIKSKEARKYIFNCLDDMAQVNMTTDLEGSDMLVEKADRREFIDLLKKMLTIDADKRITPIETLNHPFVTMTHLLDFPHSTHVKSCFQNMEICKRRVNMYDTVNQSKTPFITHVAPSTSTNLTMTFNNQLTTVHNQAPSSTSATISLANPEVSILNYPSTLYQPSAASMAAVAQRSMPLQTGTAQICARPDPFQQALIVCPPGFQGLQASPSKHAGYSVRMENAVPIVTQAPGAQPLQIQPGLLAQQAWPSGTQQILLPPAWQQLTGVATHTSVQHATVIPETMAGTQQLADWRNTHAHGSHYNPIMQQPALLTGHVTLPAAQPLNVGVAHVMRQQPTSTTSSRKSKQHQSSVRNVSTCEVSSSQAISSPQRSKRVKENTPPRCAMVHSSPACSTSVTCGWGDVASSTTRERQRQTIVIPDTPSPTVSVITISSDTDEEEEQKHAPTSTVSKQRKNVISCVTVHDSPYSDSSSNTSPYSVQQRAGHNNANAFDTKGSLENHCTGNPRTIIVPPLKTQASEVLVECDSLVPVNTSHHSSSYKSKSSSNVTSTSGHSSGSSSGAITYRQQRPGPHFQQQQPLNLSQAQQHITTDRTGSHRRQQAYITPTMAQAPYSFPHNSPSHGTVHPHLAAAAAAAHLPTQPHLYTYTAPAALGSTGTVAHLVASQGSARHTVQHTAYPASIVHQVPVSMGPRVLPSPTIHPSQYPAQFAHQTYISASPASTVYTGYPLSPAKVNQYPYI
Chain of CaMKI(h) (Q14012 whole entry): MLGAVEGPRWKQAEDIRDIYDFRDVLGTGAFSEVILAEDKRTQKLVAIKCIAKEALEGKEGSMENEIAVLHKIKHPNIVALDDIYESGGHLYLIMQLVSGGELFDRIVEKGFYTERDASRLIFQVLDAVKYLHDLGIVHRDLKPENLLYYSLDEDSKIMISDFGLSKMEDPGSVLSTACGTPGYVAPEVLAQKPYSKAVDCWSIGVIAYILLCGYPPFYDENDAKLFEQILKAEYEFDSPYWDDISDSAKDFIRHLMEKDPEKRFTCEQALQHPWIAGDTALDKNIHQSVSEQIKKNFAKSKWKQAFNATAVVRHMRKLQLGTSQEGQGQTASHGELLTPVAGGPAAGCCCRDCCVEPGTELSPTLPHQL
Chain of MSK1(h) (O75582 whole entry): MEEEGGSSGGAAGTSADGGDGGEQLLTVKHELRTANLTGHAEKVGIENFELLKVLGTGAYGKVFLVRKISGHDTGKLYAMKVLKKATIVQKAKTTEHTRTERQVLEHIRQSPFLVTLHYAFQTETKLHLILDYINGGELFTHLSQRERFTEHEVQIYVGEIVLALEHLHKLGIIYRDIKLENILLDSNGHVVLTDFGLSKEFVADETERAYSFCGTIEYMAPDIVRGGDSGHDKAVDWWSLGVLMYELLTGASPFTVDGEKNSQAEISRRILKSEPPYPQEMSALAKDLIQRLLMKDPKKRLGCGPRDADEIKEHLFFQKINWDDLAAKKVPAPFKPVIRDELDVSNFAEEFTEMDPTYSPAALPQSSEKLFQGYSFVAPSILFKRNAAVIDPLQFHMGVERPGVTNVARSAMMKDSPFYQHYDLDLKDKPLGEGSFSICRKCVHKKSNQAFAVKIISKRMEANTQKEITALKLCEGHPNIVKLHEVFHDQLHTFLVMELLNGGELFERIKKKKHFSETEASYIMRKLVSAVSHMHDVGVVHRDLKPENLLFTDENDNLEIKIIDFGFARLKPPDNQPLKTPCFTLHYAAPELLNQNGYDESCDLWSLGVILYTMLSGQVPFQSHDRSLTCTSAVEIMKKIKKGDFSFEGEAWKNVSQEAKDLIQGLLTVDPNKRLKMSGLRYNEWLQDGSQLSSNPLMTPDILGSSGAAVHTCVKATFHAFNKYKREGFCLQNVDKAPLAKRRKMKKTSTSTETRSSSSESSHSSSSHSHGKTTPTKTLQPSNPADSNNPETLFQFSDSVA
Chain of CHK2(h) (O96017 whole entry): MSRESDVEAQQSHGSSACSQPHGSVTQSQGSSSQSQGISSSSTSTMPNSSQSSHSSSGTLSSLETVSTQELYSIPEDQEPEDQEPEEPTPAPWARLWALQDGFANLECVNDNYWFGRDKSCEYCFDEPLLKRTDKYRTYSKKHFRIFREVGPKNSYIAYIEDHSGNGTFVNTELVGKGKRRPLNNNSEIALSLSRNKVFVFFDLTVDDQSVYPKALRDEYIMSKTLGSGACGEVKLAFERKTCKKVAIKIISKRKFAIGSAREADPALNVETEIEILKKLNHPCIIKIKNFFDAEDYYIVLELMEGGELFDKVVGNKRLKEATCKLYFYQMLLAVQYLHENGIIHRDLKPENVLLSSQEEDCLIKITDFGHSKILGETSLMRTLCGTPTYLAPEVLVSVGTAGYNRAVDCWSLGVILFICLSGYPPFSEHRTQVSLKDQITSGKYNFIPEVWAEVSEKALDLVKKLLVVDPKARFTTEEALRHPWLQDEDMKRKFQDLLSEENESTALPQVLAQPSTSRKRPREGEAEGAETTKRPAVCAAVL
Chain of Rsk4(h) (Q9UK32 whole entry): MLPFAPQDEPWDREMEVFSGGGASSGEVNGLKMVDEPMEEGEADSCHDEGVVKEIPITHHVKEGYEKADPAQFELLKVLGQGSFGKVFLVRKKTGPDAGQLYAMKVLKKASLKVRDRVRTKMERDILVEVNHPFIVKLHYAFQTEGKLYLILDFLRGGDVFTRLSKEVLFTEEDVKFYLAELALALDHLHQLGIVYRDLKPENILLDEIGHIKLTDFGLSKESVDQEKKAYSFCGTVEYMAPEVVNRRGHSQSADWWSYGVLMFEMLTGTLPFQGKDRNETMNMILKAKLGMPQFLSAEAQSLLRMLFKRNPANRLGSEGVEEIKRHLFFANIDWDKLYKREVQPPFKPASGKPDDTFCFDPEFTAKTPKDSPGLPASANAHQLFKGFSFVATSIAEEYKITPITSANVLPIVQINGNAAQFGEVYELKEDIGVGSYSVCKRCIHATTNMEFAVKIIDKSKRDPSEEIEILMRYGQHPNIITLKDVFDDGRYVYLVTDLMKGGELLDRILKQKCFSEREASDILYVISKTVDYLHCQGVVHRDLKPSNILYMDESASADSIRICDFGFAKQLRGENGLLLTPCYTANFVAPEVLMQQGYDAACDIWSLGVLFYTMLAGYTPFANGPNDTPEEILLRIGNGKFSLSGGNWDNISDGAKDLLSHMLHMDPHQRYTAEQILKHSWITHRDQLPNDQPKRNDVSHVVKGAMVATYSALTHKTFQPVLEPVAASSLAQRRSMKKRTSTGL

For the sequence HRRIKAWLKKIKALARQLGVAA [MMI-0500], the “% activity” value with CaMKI(h) was −1%; in the assay with TSSK2(h), 92%; with NEK3(h), 20%; in the assay with MSK1(h), 8%; with Rsk4(h), 29%; with DCAMKL2(h), 56%. Moreover, the “% activity” value with Haspin(h) was found to be 25%; with CHK2(h) it was 13%; with HIPK2(h) it was 38%.
Take YARAAARQARAKALNRQLGVA [MMI-0200]: the “% activity” value in the assay with CaMKI(h) came to 21%; in the assay with TSSK2(h), 91%; with NEK3(h) it was 100%; with MSK1(h) it was 50%; in the assay with Rsk4(h) it was 125%; with DCAMKL2(h), 131%. The “% activity” value with Haspin(h) was 71%.
For KAFAKLAARLYRKALARQLGVAA [MMI-0400], the “% activity” value with CaMKI(h) is 0%; with TSSK2(h), 94%; with NEK3(h), 85%; in the assay with MSK1(h), 28%; with Rsk4(h), 91%; with DCAMKL2(h) it was 70%. Also, the “% activity” value with Haspin(h) was 36%; in the assay with CHK2(h), 54%; with HIPK2(h) it was 90%.
As to FAKLAARLYRKALARQLGVAA [MMI-0300], the “% activity” value is 1% with CaMKI(h); 98% with TSSK2(h); 92% with NEK3(h); 32% with MSK1(h); 90% with Rsk4(h); 81% in the assay with DCAMKL2(h). The “% activity” value is 48% in the assay with Haspin(h), 66% with CHK2(h) and 73% with HIPK2(h).
